This is an account of results in patent US20240181006A1 (Merck KGaA, published 2024).

The target of test [1] is T1, recombinant cynomolgus Aggrecan G1-IGD-G2 (cynomolgus).
T1 construct: domain: G1-IGD-G2; also called Cy G1-IGD-G2
Kind of test: SPR (ProteOn XPR36), Aggrecan G1-IGD-G2 immobilized, 949 as analyte (average, N=2).
Description: (§1) Dissociation time was 10 min. After each sample injection the surfaces were regenerated with 10 mM glycine pH 1.5. […] This change in refractive index causes a change in the intensity and angle of reflected light which is quantitatively measured in real-time and plotted as response units (RU) versus time on a sensorgram. The kinetic constants were calculated from the obtained sensorgrams using ProteOn Manager 3.1.0 version 3.1.0.6 software and the ‘kinetic Langmuir kₐ/kd simultaneous’ model.

Test [2] addresses T2, human MMP13 catalytic domain (human, UniProt P45452 104-274). Kind of test: cell-based or functional assay.
The target of test [3] is T3, rat MMP13 (activated) (rat, UniProt P23097 99-466). In words: cell-based or functional assay.
Test [4] addresses T4, cynomolgus MMP13 catalytic domain (cynomolgus, UniProt A0A2K5U988 104-274). In words: cell-based or functional assay.
Test [5] addresses T5, rat MMP13 catalytic domain (rat, UniProt P23097 99-269). Kind of test: cell-based or functional assay.
Test [6] addresses T6, human ADAMTS5 (human, UniProt Q9UNA0 262-622, limits assumed).
T6 construct: Recombinant protein; also called recombinant human ADAMTS5
T6 sequence: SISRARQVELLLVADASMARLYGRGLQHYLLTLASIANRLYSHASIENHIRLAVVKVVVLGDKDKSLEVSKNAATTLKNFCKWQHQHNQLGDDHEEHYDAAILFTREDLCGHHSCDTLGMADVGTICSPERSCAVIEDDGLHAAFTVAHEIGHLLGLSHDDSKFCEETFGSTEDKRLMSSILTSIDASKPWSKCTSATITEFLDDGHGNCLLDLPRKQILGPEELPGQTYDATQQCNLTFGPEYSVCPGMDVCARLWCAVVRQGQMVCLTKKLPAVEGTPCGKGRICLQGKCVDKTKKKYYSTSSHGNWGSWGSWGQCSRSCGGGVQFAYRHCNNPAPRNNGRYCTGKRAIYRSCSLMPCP
Kind of test: KinExA, in solution, without Aggrecan G1-IGD-G2 (average, N=3). For orientation: Kinetic exclusion samples the free partner from a solution-phase mixture.
Description: (§2) All dilutions were prepared in sample buffer (PBS+0.1% BSA+0.02% NaN₃).
(§3) Percent free Nanobody construct was plotted as a function of ADAMTS5 concentration and fitted using the KinExA Pro Software v3.6.5 to determine the KD.

The target in test [7] is T7, recombinant rat Aggrecan G1-IGD-G2 (rat, UniProt P07897 20-684, limits assumed).
T7 construct: domain: G1-IGD-G2; also called Rat G1-IGD-G2
In words: SPR (ProteOn XPR36), Aggrecan G1-IGD-G2 immobilized, 949 as analyte (average, N=3).
Description: as §1

Test [8] deals with T8, cynomolgus ADAMTS5 (cynomolgus, UniProt A0A2K5X879 260-620).
T8 sequence: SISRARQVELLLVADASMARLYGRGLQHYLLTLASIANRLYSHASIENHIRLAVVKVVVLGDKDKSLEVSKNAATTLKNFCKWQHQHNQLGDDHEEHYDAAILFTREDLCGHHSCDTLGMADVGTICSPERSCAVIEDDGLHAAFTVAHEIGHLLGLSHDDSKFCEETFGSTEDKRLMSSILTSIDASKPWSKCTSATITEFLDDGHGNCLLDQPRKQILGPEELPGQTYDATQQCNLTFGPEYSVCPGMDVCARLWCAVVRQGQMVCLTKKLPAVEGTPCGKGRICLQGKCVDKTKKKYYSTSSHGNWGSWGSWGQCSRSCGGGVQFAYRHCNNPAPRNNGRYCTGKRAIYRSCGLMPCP
In words: cell-based or functional assay.

For test [9], the target named is T6, human ADAMTS5. Kind of test: cell-based or functional assay.
In test [10] the target is T3, rat MMP13 (activated). Kind of test: FRET-based kinetic enzyme assay, IC50 equals KI (average, N=2).
Description: (§4) All dilutions were made in assay buffer (50 mM Tris (pH 7.5), 100 mM NaCl, 10 mM CaCl₂)*2H₂O, 0.01% Tween20). […] This collagen-based substrate contains the generic MMP cleavage sequence Proline-Leucine-Glycine-Leucine (PLGL) and is labelled with a fluorochrome, Mca, and a quencher, Dpa. […] Starting within one minute after addition of the substrate, fluorescence was measured kinetically every minute for a total of 120 cycles (2 hours) using a Tecan F200 plate reader.
(§5) The obtained progress curves (fluorescent signal in function of reaction time) were analyzed using GraphPad Prism software, by fitting the linear portion of each progress curve with a straight line (Y=slope*X+Y-intercept).
Test [11] has as its target T4, cynomolgus MMP13 catalytic domain. Kind of test: FRET-based kinetic enzyme assay, IC50 equals KI (average, N=3).
Description: as §4, §5
The target in test [12] is T9, human MMP13 (activated) (human, UniProt P45452 104-471).
T9 construct: also called human pro MMP13
The description is as above.
Description: as §4, §5

Test [13] has as its target T5, rat MMP13 catalytic domain. Described as above.
Description: as §4, §5
The target in test [14] is T2, human MMP13 catalytic domain. Kind of test: FRET-based kinetic enzyme assay, IC50 equals KI (average, N=6).
Description: as §4, §5
In test [15] the target is T6, human ADAMTS5. In words: KinExA, in solution, in presence of 2 nM Aggrecan G1-IGD-G2 (average, N=3).
Description: as §2, §3
The target in test [16] is T10, recombinant human Aggrecan G1-IGD-G2 (human, UniProt P16112 20-676).
T10 construct: also called Hu G1-IGD-G2
Kind of test: SPR (ProteOn XPR36), Aggrecan G1-IGD-G2 immobilized, 949 as analyte (average, N=4).
Description: as §1

Test [17] concerns the target T11, rat ADAMTS5 (rat, UniProt Q6TY19 262-928).
T11 sequence: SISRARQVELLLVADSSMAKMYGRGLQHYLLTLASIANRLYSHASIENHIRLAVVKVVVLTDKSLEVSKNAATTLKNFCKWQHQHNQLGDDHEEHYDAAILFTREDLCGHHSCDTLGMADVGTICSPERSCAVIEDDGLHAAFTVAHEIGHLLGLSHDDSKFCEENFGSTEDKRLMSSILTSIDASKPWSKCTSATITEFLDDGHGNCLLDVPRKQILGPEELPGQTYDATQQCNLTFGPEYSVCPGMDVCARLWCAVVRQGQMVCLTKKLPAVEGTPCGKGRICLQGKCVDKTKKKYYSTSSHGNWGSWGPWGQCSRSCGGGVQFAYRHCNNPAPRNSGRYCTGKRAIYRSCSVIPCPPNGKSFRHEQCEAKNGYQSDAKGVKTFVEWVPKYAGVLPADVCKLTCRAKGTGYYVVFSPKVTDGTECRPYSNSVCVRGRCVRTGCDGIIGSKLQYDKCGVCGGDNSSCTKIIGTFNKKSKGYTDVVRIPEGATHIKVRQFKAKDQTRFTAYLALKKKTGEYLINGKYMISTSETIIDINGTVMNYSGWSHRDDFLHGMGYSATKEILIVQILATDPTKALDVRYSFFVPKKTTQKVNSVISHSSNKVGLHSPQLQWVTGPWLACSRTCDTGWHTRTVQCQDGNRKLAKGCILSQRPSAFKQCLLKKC
In words: KinExA, in solution (N=1).
Description: as §2, §3

For test [18], the target named is T8, cynomolgus ADAMTS5. Kind of test: KinExA, in solution (N=1).
Description: as §2, §3
The target of test [19] is guinea pig ADAMTS5 (guinea pig). Kind of test: SPR (Biacore T100), ADAMTS5 immobilized on CM5, 100 nM ISVD, Experiment 1.
Description: (§6) Species cross-reactivity was initially evaluated via SPR-based off-rate analysis on a Biacore T100 instrument. Polypeptides were tested for binding to human, cynomolgus monkey (“cyno”), guinea pig, mouse, and bovine ADAMTS5. To this end, recombinant ADAMTS5 was immobilized onto a CM5 chip via amine coupling using EDC and NHS. […] Off-rate for each individual ADAMTS5 was determined by fitting a 1:1 interaction model (Langmuir model) onto the individual dissociation curves using the BIA Evaluation software. As a reference, off-rates on human ADAMTS5 were determined in each experiment.
Test [20] addresses T8, cynomolgus ADAMTS5. The description is as above.
Description: as §6
Test [21] concerns the target T6, human ADAMTS5. Described as above.
Description: as §6
In test [22] the target is T12, mouse ADAMTS5 (mouse, UniProt Q9R001 262-622, limits assumed).
T12 sequence (looked up): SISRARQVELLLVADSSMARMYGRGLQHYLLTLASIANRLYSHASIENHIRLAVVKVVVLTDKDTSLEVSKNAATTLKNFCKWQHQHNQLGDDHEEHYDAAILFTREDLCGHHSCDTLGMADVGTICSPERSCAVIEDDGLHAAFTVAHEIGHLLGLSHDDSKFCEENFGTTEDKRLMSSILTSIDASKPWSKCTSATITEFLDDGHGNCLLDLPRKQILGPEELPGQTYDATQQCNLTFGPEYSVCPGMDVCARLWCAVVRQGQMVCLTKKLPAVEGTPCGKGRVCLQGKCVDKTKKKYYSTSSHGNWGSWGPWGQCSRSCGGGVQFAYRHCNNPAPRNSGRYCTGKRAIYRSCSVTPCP
Kind of test: SPR (Biacore T100), ADAMTS5 immobilized on CM5, 100 nM ISVD, Experiment 2.
Description: as §6

The target of test [23] is T6, human ADAMTS5. Described as above.
Description: as §6
For test [24], the target named is T6, human ADAMTS5. Kind of test: cell-based or functional assay. The source holds these as a separate data set.
For test [25], the target named is T6, human ADAMTS5. Kind of test: SPR (Biacore T100), ADAMTS5 immobilized on CM5, 100 nM ISVD, Experiment 3.
Description: as §6
Test [26] deals with dog MMP13 (activated) (dog, UniProt A0A8I3MWY2 129-496). Kind of test: cell-based or functional assay.
The target of test [27] is cynomolgus MMP13 (activated) (cynomolgus, UniProt A0A2K5U988 104-471). Kind of test: cell-based or functional assay.
Test [28] concerns the target T3, rat MMP13 (activated). Kind of test: cell-based or functional assay. The source holds these as a separate data set.
The target in test [29] is bovine MMP13 (activated) (bovine, UniProt O77656 104-471, limits assumed). Kind of test: cell-based or functional assay.
Test [30] concerns the target T9, human MMP13 (activated). In words: cell-based or functional assay.

B1: polypeptide 949 (62C02-2F03-114F08-114F08, 35GS linkers) (other)
chain: EVQLVESGGGVVQPGGSLRLSCAASGFAFSAAYMSWVRQAPGKGLEWVSSISDDGSKTYYADSVKGRFTISRDNSKNTVYLQMNSLRPEDTALYYCNTGYGATTTRPGRYWGQGTLVTVSSGGGGSGGGGSGGGGSGGGGSGGGGSGGGGSGGGGSEVQLVESGGGVVQPGGSLRLSCAASGRTVSSYAMGWFRQAPGKEREFVAGISRSAERTYYVDSLKGRFTISRDNSKNTVYLQMNSLRPEDTALYYCAADLDPNRIFSREEYAYWGQGTLVTVSSGGGGSGGGGSGGGGSGGGGSGGGGSGGGGSGGGGSEVQLVESGGGVVQPGGSLRLSCAASGSTFIINVVRWYRRAPGKQRELVATISSGGNANYVDSVRGRFTISRDNSKNTVYLQMNSLRPEDTALYYCNVPTTHYGGVYYGPYWGQGTLVTVSSGGGGSGGGGSGGGGSGGGGSGGGGSGGGGSGGGGSEVQLVESGGGVVQPGGSLRLSCAASGSTFIINVVRWYRRAPGKQRELVATISSGGNANYVDSVRGRFTISRDNSKNTVYLQMNSLRPEDTALYYCNVPTTHYGGVYYGPYWGQGTLVTVSSA
notes: Tetravalent, trispecific VHH construct: anti-MMP13, anti-ADAMTS5 and two anti-Aggrecan units; also called C010100949; ALX-1011
As usually defined, the Kd is a measure of binding affinity in units of concentration. A word on the Ki: it is the equilibrium dissociation constant of an inhibitor or competing ligand from its target. High values mean lower affinity, low ones higher affinity. With B1, the dissociation constant Kd in test [1] amounted to 0.016 nM; in [6], 0.0327 nM; in test [7] it was 0.0166 nM; in [15], 0.0266 nM; in [16], 0.014 nM; in test [17], 0.0252 nM. Binding in test [18] was put at a Kd of 0.0244 nM. Further, the results for the “IC50 (read off the curve); FRET-based enzymatic activity assay, Vi/V0 [left panel]” value in [2], in [4] and in [5] were approximately 30 nM, approximately 20 nM and approximately 30 nM, respectively. For the same molecule, the “IC50 (read off the curve); FRET-based enzymatic activity assay, Vi/V0 [right panel]” value in test [3] was approximately 10 nM. Besides, the “IC50 (read off the curve); FRET-based enzymatic activity assay, Vi/V0” value in test [8] was 3 to 4 nM; in test [9], approximately 4 nM. Also, the Ki in test [10] came to 13 nM; in [11], 20.2 nM; in test [12] it was 2.92 nM; in test [13], 26.6 nM; in [14] it was 27.9 nM.

B2: anti-ADAMTS5 ISVD 02F03 (VHH)
VHH: EVQLVESGGGVVQPGGSLRLSCAASGRTVSSYAMGWFRQAPGKEREFVAGISRSAERTYYVDSLKGRFTISRDNSKNTVYLQMNSLRPEDTALYYCAADLDPNRIFSREEYAYWGQGTLVTVSS
notes: Purified monovalent ISVD; also called 2F03 ATS5
A word on the koff: it is a measure of how fast the partners let go of each other. B2: the off-rate (koff) is 3.4e-05 s⁻¹ in [19]; 2.2e-05 s⁻¹ in test [20]; 3.3e-05 s⁻¹ in [21]; 0.00029 s⁻¹ in [22]; 6.5e-05 s⁻¹ in [23]; 9.7e-05 s⁻¹ in test [25]. In addition, the “IC50, Human AlphaLISA enzymatic assay” value in [24] turned out to be 0.075 nM. Further, the “IC50, Human FRET enzymatic assay” value in test [24] is 1.8 nM.

B3: anti-MMP13 ISVD 62C02 (VHH)
VHH: EVQLVESGGGVVQPGGSLRLSCAASGFAFSAAYMSWVRQAPGKGLEWVSSISDDGSKTYYADSVKGRFTISRDNSKNTVYLQMNSLRPEDTALYYCNTGYGATTTRPGRYWGQGTLVTVSS
For B3, in test [26], the “IC50, dog fluorogenic peptide assay” value was found to be 1 nM. In test [27], the “IC50, cyno fluorogenic peptide assay” value came to 1.4 nM. Besides, in test [28], the “IC50, rat fluorogenic peptide assay” value worked out at 1.1 nM. Moreover, the “IC50, bovine fluorogenic peptide assay” value in test [29] was found to be 3.1 nM. Also, in test [30], the “IC50, human collagenolytic assay” value was determined as 1.4 nM; the “IC50, human fluorogenic collagen assay” value stood at 8.3 nM; the “IC50, human fluorogenic peptide assay” value amounted to 1.4 nM.
